The assay addresses human plasminogen (human) (UniProt P00747).

Substance “bovine urokinase-type plasminogen activator (u-PA) (from UniProt Q05589) (enzyme)” displayed a u-PA activity (mPU/µg cell protein) of 4.9.

These data come from patent US5336615.
